We go through 2 molecules from patent US20220403044A1 (ACADEMIA SINICA, published 2022).

The target of assay [1] is T1, EGFR-Flag (UniProt P00533 25-1210, limits assumed).
T1 construct: whole, on cells; also called exogenous EGFR; not shown: Flag tag
As to the kind of experiment: co-IP with anti-V5, Western blot with anti-Flag, transfected 293T cells (FIG. 1D). As to the method:
(§1) FIGS. 1A to 1H. EpEX binds to EGFR through its EGF-like domain I. (FIG. 1A) Immunoprecipitation (IP) of affinity cross-linked EpEX-Fc bound to EGFR from HCT116 cells. (FIG. 1B) EpEX-Fc was added to EGFRECD-coated ELISA plates and detected by TMB colorimetric peroxidase assay. (FIG. 1C) 293T cells were transfected with EGFR-Flag and EpCAM-V5. IP was performed with anti-V5 antibody (left panel) or anti-Flag antibody (right panel) followed by Western blotting. (FIG. 1D) 293T cells were transfected with EGFR-Flag and EGF domain-deleted mutant EpCAM-V5. The protein interaction was probed by IP with anti-V5 antibody and Western blotting with anti-Flag antibody. (FIG. 1E) In culture media from 293T cells with EGFRECD-Flag and EpEX-Fc transfection, IP was performed with Dynabeads® Protein G and detected by Western blotting with anti-Flag antibody. (FIG. 1F) 293T cells were transiently transfected with EGFRECD-Flag and EGF domain-deleted mutant EpEX-Fc. […] (FIG. 1G) Purified EGFRECD-6×His and EGF domain-deleted mutant EpEX-Fc were incubated and IP was performed with Dynabeads® Protein G and detected by Western blotting. (FIG. 1H) HCT116 cells were starved and treated with wild-type or EGF domain-deleted mutant EpEX, and EGFR signaling was analyzed by Western blotting. […]

Assay [2] has as its target T1, EGFR-Flag. Kind of assay: co-IP from HEK293T cells overexpressing EpCAM-V5 and EGFR-Flag (FIG. 1C). As to the method: as §1

B1: EGF-like domain II-deleted EpCAM mutant (EpCAMΔEGFII), V5-tagged (other, UniProt P16422 24-314, looked up)
chain: QEECVCENYKLAVNCFVNNNRQCQCTSVGAQNTVICSKLAAKSERVRTYWIIIELKHKAREKPYDSKSLRTALQKEITTRYQLDPKFITSILYENNVITIDLVQNSSQKTQNDVDIADVAYYFEKDVKGESLFHSKKMDLTVNGEQLDLDPGQTLIYYVDEKAPEFSMQGLKAGVIAVIVVVVIAVVAGIVVLVISRKKRMAKYEKAEIKEMGEMHRELNA
notes: whole, on cells; also called EGF domain-deleted mutant EpCAM-V5; not shown: V5 tag
For the molecule B1, in assay [1], the binding result is reported as “binds”.

B2: EpCAM-V5 (other, UniProt P16422 24-314, looked up)
chain: QEECVCENYKLAVNCFVNNNRQCQCTSVGAQNTVICSKLAAKCLVMKAEMNGSKLGRRAKPEGALQNNDGLYDPDCDESGLFKAKQCNGTSMCWCVNTAGVRRTDKDTEITCSERVRTYWIIIELKHKAREKPYDSKSLRTALQKEITTRYQLDPKFITSILYENNVITIDLVQNSSQKTQNDVDIADVAYYFEKDVKGESLFHSKKMDLTVNGEQLDLDPGQTLIYYVDEKAPEFSMQGLKAGVIAVIVVVVIAVVAGIVVLVISRKKRMAKYEKAEIKEMGEMHRELNA
notes: whole, on cells; also called exogenous EpCAM; not shown: V5 tag
B2: the binding result in assay [2] is recorded as “binds”.
